Measurements as given in patent US20230375528.

Assays:
[1] = target: ENO1down (ENO1-K343A) (Homo sapiens) (UniProt P06733); assay: EMSA; conditions: competition EMSA
[2] = target: ENO1 wild type (Enolase 1) (Homo sapiens) (UniProt P06733); assay: EMSA
Chain of ENO1 wild type (Enolase 1) (Homo sapiens) (P06733 2-434): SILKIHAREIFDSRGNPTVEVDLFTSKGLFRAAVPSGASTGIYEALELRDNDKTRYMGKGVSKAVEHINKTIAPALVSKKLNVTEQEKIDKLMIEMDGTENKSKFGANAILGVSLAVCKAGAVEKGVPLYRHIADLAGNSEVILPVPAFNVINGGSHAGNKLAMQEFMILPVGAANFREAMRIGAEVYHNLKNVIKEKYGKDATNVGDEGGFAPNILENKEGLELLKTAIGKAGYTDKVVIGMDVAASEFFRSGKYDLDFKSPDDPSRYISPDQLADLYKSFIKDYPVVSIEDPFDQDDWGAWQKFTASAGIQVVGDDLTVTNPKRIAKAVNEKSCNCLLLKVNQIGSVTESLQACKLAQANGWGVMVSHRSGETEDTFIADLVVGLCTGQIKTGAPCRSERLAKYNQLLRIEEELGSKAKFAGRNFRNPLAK

Chain of ENO1down (ENO1-K343A) (Homo sapiens) (P06733 whole entry K343A): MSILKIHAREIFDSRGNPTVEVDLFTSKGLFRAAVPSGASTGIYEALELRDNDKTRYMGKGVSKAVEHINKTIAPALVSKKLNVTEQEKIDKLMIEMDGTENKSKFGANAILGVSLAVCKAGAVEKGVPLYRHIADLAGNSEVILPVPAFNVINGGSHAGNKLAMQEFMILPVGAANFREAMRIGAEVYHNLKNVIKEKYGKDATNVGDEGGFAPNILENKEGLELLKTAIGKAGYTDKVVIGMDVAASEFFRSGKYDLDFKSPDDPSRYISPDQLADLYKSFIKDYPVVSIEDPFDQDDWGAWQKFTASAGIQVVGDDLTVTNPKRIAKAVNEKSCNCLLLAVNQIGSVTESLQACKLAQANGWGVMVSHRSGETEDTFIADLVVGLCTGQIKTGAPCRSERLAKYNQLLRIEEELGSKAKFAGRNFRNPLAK

Work on PABPC1 5'UTR target 35-mer RNA yielded a Ki ([1]; about 5-10-fold decreased RNA binding vs wt) of 224 nM and a Ki ([2]; competition EMSA with labelled PABPC1 target 35-mer probe) of 27 nM.

In the case of “PABPC1 control 35-mer RNA (GC-matched, downstream of binding site)”, the Ki [1] is reported as 3260 nM and the Ki ([2]; competition EMSA with labelled PABPC1 target probe) is reported as 2590 nM.
